{
  "source": "patent US20240093191A1",
  "about": "“COMPOSITIONS AND METHODS FOR TREATING DISEASE ASSOCIATED WITH DUX4 OVEREXPRESSION” (RESEARCH INSTITUTE AT NATIONWIDE CHILDREN'S HOSPITAL, priority 2021, published 2024)",
  "molecules": {"B1": {"name": "mi318F: miDUX4 cloned with mi405F flanking sequences (nucleic acid)", "DNA": "GCTCGAGTGAGCGAGCCCTGCTCCTCCGAGCCTTTCTGAAAGCCACAGATGGGAAAGGCTCGGAGGAGCAGGGCGTGCCACTAGTAATTCTTCGATTCTGC", "modifications": "expressed or natural sequence"}, "B2": {"name": "mi185F: miDUX4 cloned with mi405F flanking sequences (nucleic acid)", "DNA": "GCTCGAGTGAGCGAGGTCCAGATTTGGTTTCAGAACTGTAAAGCCACAGATGGGTTCTGAAACCAAATCTGGACCCTGCCTACTAGTAATTCTTCGATTCTGC", "modifications": "expressed or natural sequence"}, "B3": {"name": "mi599F: miDUX4 cloned with mi405F flanking sequences (nucleic acid)", "DNA": "GCTCGAGTGAGCAGAGGCTCTCCCACAGGGGGCTTTCTGAAAGCCACAGATGGGAAAGCCCCCTGTGGGAGAGCCCTGCCTACTAGTAATTCTTCGATTCTGC", "modifications": "expressed or natural sequence"}, "B4": {"name": "mi186F: miDUX4 cloned with mi405F flanking sequences (nucleic acid)", "DNA": "GCTCGAGTGAGCGAGTCCAGATTTGGTTTCAGAATCTGTAAAGCCACAGATGGGATTCTGAAACCAAATCTGGACCTGCCTACTAGTAATTCTTCGATTCTGC", "modifications": "expressed or natural sequence"}, "B5": {"name": "mi1156F: miDUX4 cloned with mi405F flanking sequences (nucleic acid)", "DNA": "GCTCGAGTGAGCGAAGGCGCAACCTCTCCTAGAAACTGAAAGCCACAGATGGGTTTCTAGGAGAGGTTGCGCCTGTGCCTACTAGTAATTCTTCGATTCTGC", "modifications": "expressed or natural sequence"}, "B6": {"name": "mi1311F: miDUX4 cloned with mi405F flanking sequences (nucleic acid)", "DNA": "GCTCGAGTGAGCGAGCGGAGAACTGCCATTCTTTCCTGTAAAGCCACAGATGGGGAAAGAATGGCAGTTCTCCGCGTGCCTACTAGTAATTCTTCGATTCTGC", "modifications": "expressed or natural sequence"}},
  "data": [
    {"tested_on": "DUX4 ORF (RenLuc-DUX4 ORF)", "assay": "Dual-luciferase assay, RenLuc-DUX4 ORF reporter co-transfected with miDUX4 plasmids in HEK293 cells", "assay_type": "cell-based, human", "design": "increase in relative Renilla luciferase activity compared to original miDUX4 counterpart: concentration or dose not given beside the values", "conditions": "miDUX4 with mi405F flanking sequences; normalized to miGFP", "protocol": "Dual Luciferase Assay. (See also FIGS. 1A, 3A-B, 4A-B, 5B, and 16B-C.) This assay was performed as previously described by Wallace et al. (Mol. Ther. Methods Clin. Dev. 8: 121-30 (2018)) and following the dual-luciferase reporter assay system (Promega) protocol with some modifications. All plasmid constructs had the psiCheck2 dual luciferase reporter plasmid (Promega) as backbone that contains separate Renilla and Firefly luciferase genes, where the former contains the various target sequences used in the experiments of the disclosure, and the latter serves as a transfection normalizer (control). All DUX4 and control sequences were cloned downstream of the Renilla luciferase stop codon, serving as a 3′UTR. HEK293 cells were pre-plated 24h before transfection. Cells were then co-transfected with the luciferase DUX4 reporter and individual microRNA expression plasmids in an increasing luciferase DUX4 reporter:miRNA molar ratio using Lipofectamine 2000 (Invitrogen). Luciferase activity was measured 24h or 48h after transfection. DUX4 gene silencing was determined as previously described [Wallace et al., Mol. Ther. Methods Clin. Dev. 8: 121-30 (2018)]. Triplicate data were averaged per experiment, and individual experiments were performed 3 times. Results were reported as the average ratio of Renilla to Firefly luciferase activity±SEM for all combined experiments.\nAccordingly, two new mi405 constructs, i.e., mi405F and mi405NF, were designed. […] To assess the inhibition efficiency of the three mi405 constructs, a dual-luciferase assay and western blot analysis, similar to what was described for mir-675, were carried out. In the dual-luciferase assay, U6.mi405, U6.mi405F, or U6.mi405NF was co-transfected into HEK293 cells along with the RenLuc-DUX4 ORF (a construct expressing the open reading frame of DUX4 as a 3′UTR sequence of Renilla Luciferase). 24 h after transfection, U6.mi405, U6.mi405F, and U6.mi405NF reduced the relative Renilla luciferase activity by 85±1%, 89±1%, and 66±1% (P<0.0001, ANOVA, N=3), respectively, when tested against the RenLuc-DUX4 ORF construct.", "units": {"increase in relative Renilla luciferase activity compared to original miDUX4 counterpart": "%"}, "values": [
      {"molecule": "B1", "increase in relative Renilla luciferase activity compared to original miDUX4 counterpart": "44±15"},
      {"molecule": "B2", "increase in relative Renilla luciferase activity compared to original miDUX4 counterpart": "160±8"},
      {"molecule": "B3", "increase in relative Renilla luciferase activity compared to original miDUX4 counterpart": "24±9"},
      {"molecule": "B4", "increase in relative Renilla luciferase activity compared to original miDUX4 counterpart": "27±9"},
      {"molecule": "B5", "increase in relative Renilla luciferase activity compared to original miDUX4 counterpart": "34±8"},
      {"molecule": "B6", "increase in relative Renilla luciferase activity compared to original miDUX4 counterpart": "27±9"}
    ]}
  ]
}
